Laboratory results published in publication PMC4505822.

Target: insertion mutant recombinant human prion protein with five additional octapeptide repeats (human) (UniProt P04156)
Assay: AFM height measurement with a calibration curve of marker proteins

For “insertion mutant recombinant human prion protein with five additional octapeptide repeats (from UniProt P04156 23-231) (natural protein)”, the stoichiometry N was 11 to 22 monomers.
